According to US20220152100A1, “METHODS FOR CONTROLLED ACTIVATION OR ELIMINATION OF THERAPEUTIC CELLS” (Bellicum Pharmaceuticals, Inc., priority 2014, published 2022):
Entries after “also recorded” stand apart in the source; their conditions may differ. Read-outs that look alike come from different tables or passages of the source.

Columns and labels:
[1] = target: wt FRB (K2095 T2098 W2101) (Homo sapiens, UniProt P42345+P62942); conditions: cited from earlier work
[2] = target: CD19-CAR-FRBl2 (1st generation CD19-CAR with two tandem FRBl domains, co-expressed with iCaspase-9 from iC9-CAR(19).FRBl2); assay: cell-based or functional assay
[3] = target: Her2-CAR-FRBl2 (1st generation Her2-CAR with two tandem FRBl domains at its carboxy terminus); assay: cell-based or functional assay
[4] = target: FRBL x4 scaffold, not myristoylated (plasmid pBP0725, pSH1-FRBI.FRBI′.LS.FRBI″.FRBI′′′); assay: cell-based or functional assay
[5] = test system: 293 cells; assay: SEAP assay: iMC (tandem FKBP) plus FRBL2-Caspase-9; type: cell-based, human; conditions: tandem FKBPs (iMC) present
Experimental: FIGS. 16A and 16B are line graphs showing that tandem FKBP scaffold mediates FRBL2. Caspase activation in the presence of rapalogs. FIG. 16A. HEK-293 cells were transfected with 1 μg each of SRα-SEAP reporter plasmid, Δmyr.iMC.2A-anti-CD19.CAR.CD3 (pBP0608), and FRBL2. Caspase-9 (pBP0467). […] After ON incubation, cell supernatants were assayed for SEAP activity, as previously described. FIG. 16B. Similar to the experiment described in (FIG. 16A), except that cells were transfected with a membrane-localized (myristoylated) iMC.2A-CD19.CAR.CD3ζ (pBP0609), instead of non-myristoylated Amyr.iMC.2A-CD19.CAR.CD3ζ (pBP0608).
In a second test for rapalog-mediated scaffold-based activation of Caspase-9, 293 cells were transiently transfected with SRα-SEAP reporter plasmid, plus myristoylated or non-myristoylated inducible iMC co-expressed with 1st generation anti-CD19 CAR, plus FRBL2-fused Caspase-9 (plasmid pBP0467) (FIG. 16). […] Thus, rapamcyin and analogs can activate Caspase-9 via a molecular scaffold comprised of FRB or FKBP12 domains.

[6] = test system: 293T cells; assay: SeAP reporter assay: FRBL-Caspase9 plus FKBPv12-Caspase9 heterodimerization; type: cell-based, human; conditions: FRBL-Caspase9 plus FKBPv12-Caspase9
Experimental: HEK 293T cells (5×10^5) were seeded on a 100-mm tissue culture dish in 10 mL DMEM4500, supplemented with glutamine, penicillin/streptomycin and 10% fetal calf serum. After 16-30 hours incubation, cells were transfected using Novagen's GeneJuice® protocol. Briefly, for each transfection, 0.5 mL OptiMEM was pipeted into a 1.5-mL microcentrifuge tube and 15 μL GeneJuice reagent added followed by 5 sec. vortexing. Samples were rested 5 minutes to settle the GeneJuice suspension. DNA (5 μg total) was added to each tube and mixed by pipetting up and down four times. Samples were allowed to rest for 5 minutes for GeneJuice-DNA complex formation and the suspension added dropwise to one dish of 293T cells. A typical transfection contains 1 μg SRα-SEAP (pBP0046) (3), 2 μg FRB-Caspase-9 (pBP0463) and 2 μg FKBPv12-Caspase-9 (pBP0044) (7).
24 hours following transfection (4.1), 293T cells were split to 96-well plates and incubated with dilutions of dimerizing drugs. Briefly, 100 μL media was added to each well of a 96-well flat-bottom plate. Drugs were diluted in tubes to a concentration 4× the top concentration in the gradient to be place on the plate. […] 100 μL from each drug-containing well was then transferred to the adjacent well and the cycle repeated 10 times to produce a serial two-fold step gradient. The last wells were untreated and serve as a control for basal reporter activity. […]
24 hours after drug stimulation, 96-well plates were wrapped to prevent evaporation and incubated at 65®C for 2 hours to inactivate endogenous and serum phosphatases while the heat-stable SeAP reporter remains (1, 4, 12). […] Phosphatase activity was measured by fluorescence with excitation at 355 nm and emission at 460 nm. […]
FIG. 37—Drug induced programmed cell death by homodimerization or heterodimerization of tagged caspase 9. […] Reporter activity is expressed as a percentage of the average of 8 control wells containing no drug. […]
FIG. 38—Rapalog-induced cell death switch. […] Reporter activity is expressed as a percentage of the average of 8 wells containing no drug. […]

[7] = target: FKBP12 x4 scaffold (plasmid pBP0722, pSH1-Fpk-Fpk′.LS.Fpk″.Fpk′′′.LS.HA) (Homo sapiens (Human)) (UniProt P62942); assay: cell-based or functional assay
[8] = test system: 293 cells; assay: SEAP assay: FRBl2-tagged CAR plus iCaspase-9, two-tiered apoptosis; type: cell-based, human; conditions: FRB-tagged CAR and FKBP-tagged Caspase-9, overnight
From the text: FIGS. 6A and 6B provide the results of an assay of two-tiered activation of apoptosis.
As a proof of principal, two tandem FRBl domains were fused to either a 1st generation Her2-CAR or to a 1st generation CD19-CAR co-expressing inducible Caspase-9. 293 cells were transiently transfected with a constitutive reporter plasmid, SRα-SEAP, along with normalized levels of expression plasmids encoding Her2-CAR-FRBl2, iCaspase-9, Her2-CAR-FRBl2+iCasp9, iC9-CAR(19).FRBl2 (coexpressing both CD19-CAR-FRBl2 and iCaspase9), or control vector. […] After overnight incubation with drugs, SEAP activity was determined. […] This dose-dependent decrease required the presence of both the FRB-tagged CAR and the FKBP-tagged Caspase-9. […] Moreover, on- or off-target-mediated CAR clustering should increase the sensitivity of killing primarily at the site of scFv engagement.

[9] = test system: 293 cells
From the text: To determine if the polarity of heterodimerization and Caspase-9 assembly could be reversed, one to four 1 to 4 tandem copies of FKBP12 were subcloned into expression vector, pSH1, as above. […] As above, 293 cells were transfected with the SRα-SEAP reporter plasmid along with FRBL-ΔCaspase-9, plus a non-myristoylated scaffold protein containing 1 or 4 tandem copies of FKBP12.

[10] = test system: 293 cells; remark: listed apart in the source
Experimental: FIG. 12B: Cultures of HEK-293 cells were transfected (via Genejuice, Novagen) with the constitutive SRα-SEAP reporter plasmid (pBP0046, 1 μg), a fusion of human FKBP12 with human Caspase-9 (pBP0044, 2 μg) and FRB-encoding expression constructs, containing four copies of FRBL (pBP0725, 2 μg) or control vectors encoding zero or one copy of FRBL. […] FIG. 12C: Reporter assays were performed as in (B), but FRB-scaffolds were expressed from constructs encoding iterated FRBL domains with an amino-terminal myristoylation-targeting sequence and two (pBP0465) or four copies (pBP0721) of the FRBL domain.
A subset of constructs also contained the myristoylation-targeting domain from v-Src for membrane localization of the FRB-scaffold (FIG. 12A). 293 cells were transfected with the SRα-SEAP reporter plasmid along with FKBP12-ΔCaspase-9 (iCaspase-9/CaspaCIDe), plus 1 of several FRB-based, non-myristoylated scaffold proteins containing 0, 1, or 4 tandem copies of FRBL.

[11] = test system: PG13; type: cell-based; conditions: for CD19 mean fluorescence intensity (MFI): PG13 cross-transduced five times; for viral titers: upon HAT media treatment, HT1080 cells
[12] = test system: Primary T cells; assay: AP1903-dependent cytotoxicity in primary T cells transduced with iCasp9 variants (CD3+CD19+ flow cytometry); type: cell-based, human; conditions: for killing of target T cells: AP1903 at Day 0 and day 4, within 10 days
Experimental: The effects of various caspase polypeptides at mostly single copy in primary T cells was assayed. This may reflect more accurately how these suicide genes will be used therapeutically.
Primary T cells from healthy donors (n=6) were transduced with retrovirus encoding mutant or wild-type iCasp9 or iCasp9-D330A, and the ΔCD19 cell surface marker. Following transduction, iCasp9-transduced T cells were purified using CD19-microbeads and a magnetic column.

[13] = test system: HEK293T/16 cells; assay: SEAP-based surrogate killing assay of iCasp9 mutants; type: cell-based, human; conditions: for effect on basal / catalytic activity: in words, versus wild type

FRBL x4 scaffold, not myristoylated (plasmid pBP0725, pSH1-FRBI.FRBI′.LS.FRBI″.FRBI′′′), sequence (chain, as listed by the source limits assumed): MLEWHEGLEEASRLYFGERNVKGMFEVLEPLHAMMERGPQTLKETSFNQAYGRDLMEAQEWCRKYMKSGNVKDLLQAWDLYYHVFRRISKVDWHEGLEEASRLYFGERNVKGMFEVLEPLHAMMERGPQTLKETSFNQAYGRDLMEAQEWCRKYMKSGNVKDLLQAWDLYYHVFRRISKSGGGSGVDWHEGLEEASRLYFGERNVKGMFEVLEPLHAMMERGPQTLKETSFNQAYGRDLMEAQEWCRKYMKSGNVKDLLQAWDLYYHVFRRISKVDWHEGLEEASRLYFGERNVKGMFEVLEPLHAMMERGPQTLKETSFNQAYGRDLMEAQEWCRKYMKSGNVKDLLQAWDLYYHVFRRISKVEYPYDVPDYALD

S-Butanesulfonamidorap [S-Butanesulfonamidorap (AP23050)]
EC50 [1]: ~2.7 nM

FKBP12v36-ΔCaspase-9 fusion protein (iCaspase-9; plasmid pBP0044, pSH1-iCaspase9wt)
SRα-SEAP reporter activity after overnight rapamycin in transfected 293 cells [2]: 50 % decrease
SRα-SEAP reporter activity after overnight rapamycin in transfected 293 cells [3]: 50 % decrease
IC50 of rapamycin or C7-isopropoxy-rapamycin for diminution of constitutive SRα-SEAP reporter activity (cell death) in transfected 293 cells [4]: 3 nM

COC1CC(CC(C)C2CC(=O)C(C)C=C(C)C(O)C(OC)C(=O)C(C)CC(C)C=CC=CC=C(C)C(OC(C)C)CC3CCC(C)C(O)(O3)C(=O)C(=O)N3CCCCC3C(=O)O2)CCC1O (stereo not shown) [C7-isopropoxy-rapamycin, C7-isopropoxyrapamycin]
activation of FRBL2-Caspase-9 [5]: activated
cell death (loss of SeAP reporter) [6]: dose-dependent high efficacy cell death switch

FRBL-ΔCaspase-9 fusion protein (plasmid pBP0463, pSH1-FRBL.dCaspase9.T2A)
IC50 of rapamycin or C7-isopropoxy-rapamycin for diminution of constitutive SRα-SEAP reporter activity (cell death) in transfected 293 cells [7]: 3 nM

CO[C@H]1C[C@@H]2CC[C@@H](C)[C@@](O)(O2)C(=O)C(=O)N2CCCC[C@H]2C(=O)O[C@H]([C@H](C)C[C@@H]2CC[C@@H](O)[C@H](OC)C2)CC(=O)[C@H](C)/C=C(\C)[C@@H](O)[C@@H](OC)C(=O)[C@H](C)C[C@H](C)/C=C/C=C/C=C/1C [rapamycin]
decrease of SEAP activity [8]: ~50%
IC50 [9]: ~3 nM
IC50 [10]: ~3 nM

B1: D330A: chimeric modified Caspase-9 polypeptide, SEQ ID NO: 24 (protein)
chain: GFGDVGALESLRGNADLAYILSMEPCGHCLIINNVNFCRESGLRTRTGSNIDCEKLRRRFSSLHFMVEVKGDLTAKKMVLALLELARQDHGALDCCVVVILSHGCQASHLQFPGAVYGTDGCPVSVEKIVNIFNGTSCPSLGGKPKLFFIQACGGEQKDHGFEVASTSPEDESPGSNPEPDATPFQEGLRTFDQLAAISSLPTPSDIFVSYSTFPGFVSWRDPKSGSWYVETLDDIFEQWAHSEDLQSLLLRVANAVSVKGIYKQMPGCFNFLRKKLFFKTS
CD19 mean fluorescence intensity (MFI) [11]: enhanced CD19 mean fluorescence intensity
viral titers [11]: higher viral titers
sensitivity to AP1903 / killing of target cells [12]: more sensitive to AP1903 at low titers and kills at least as well as WT Caspase-9
IC50 of AP1903 ([12]; 6 healthy donors, AP1903 0-100 nM, 24 hours): significantly lower
relative SEAP activity Units (basal, without AP1903) ([13]; 1 μg iCasp9 per million cells): 148928
relative SEAP activity Units (basal, without AP1903) ([13]; 2 μg iCasp9 per million cells): 136863
effect on basal / catalytic activity [13]: lowered basal activity, but not as low as in N405Q; also recorded: less basal activity than wild type Caspase-9

B2: N405Q: chimeric modified Caspase-9 polypeptide, SEQ ID NO: 26 (protein)
chain: GFGDVGALESLRGNADLAYILSMEPCGHCLIINNVNFCRESGLRTRTGSNIDCEKLRRRFSSLHFMVEVKGDLTAKKMVLALLELARQDHGALDCCVVVILSHGCQASHLQFPGAVYGTDGCPVSVEKIVNIFNGTSCPSLGGKPKLFFIQACGGEQKDHGFEVASTSPEDESPGSNPEPDATPFQEGLRTFDQLDAISSLPTPSDIFVSYSTFPGFVSWRDPKSGSWYVETLDDIFEQWAHSEDLQSLLLRVANAVSVKGIYKQMPGCFQFLRKKLFFKTS
CD19 mean fluorescence intensity (MFI) [11]: enhanced CD19 mean fluorescence intensity
viral titers [11]: higher viral titers
sensitivity to AP1903 / killing of target cells [12]: less sensitive to AP1903 and cannot kill target cells as efficiently within 24 hours
killing of target T cells [12]: can kill target T cells indistinguishable from wild type Caspase-9 polypeptide or D330A within 10 days
relative SEAP activity Units (basal, without AP1903) ([13]; 1 μg iCasp9 per million cells): 179081
relative SEAP activity Units (basal, without AP1903) ([13]; 2 μg iCasp9 per million cells): 175529
effect on basal / catalytic activity [13]: lowered basal activity; also recorded: lower basal activity than D330A

B3: F404Y: chimeric modified Caspase-9 polypeptide (protein)
chain: VDGFGDVGALESLRGNADLAYILSMEPCGHCLIINNVNFCRESGLRTRTGSNIDCEKLRRRFSSLHFMVEVKGDLTAKKMVLALLELARQDHGALDCCVVVILSHGCQASHLQFPGAVYGTDGCPVSVEKIVNIFNGTSCPSLGGKPKLFFIQACGGEQKDHGFEVASTSPEDESPGSNPEPDATPFQEGLRTFDQLDAISSLPTPSDIFVSYSTFPGFVSWRDPKSGSWYVETLDDIFEQWAHSEDLQSLLLRVANAVSVKGIYKQMPGCYNFLRKKLFFKTSASRA
killing of target T cells [12]: can kill target T cells indistinguishable from wild type Caspase-9 polypeptide or D330A within 10 days
